Data from publication PMC12880088.

Biological target: T1, rYeiE (YeiE-Strep-tag II) (Salmonella enterica serotype Typhimurium ATCC14028s) (UniProt Q8ZNK8)
T1 sequence: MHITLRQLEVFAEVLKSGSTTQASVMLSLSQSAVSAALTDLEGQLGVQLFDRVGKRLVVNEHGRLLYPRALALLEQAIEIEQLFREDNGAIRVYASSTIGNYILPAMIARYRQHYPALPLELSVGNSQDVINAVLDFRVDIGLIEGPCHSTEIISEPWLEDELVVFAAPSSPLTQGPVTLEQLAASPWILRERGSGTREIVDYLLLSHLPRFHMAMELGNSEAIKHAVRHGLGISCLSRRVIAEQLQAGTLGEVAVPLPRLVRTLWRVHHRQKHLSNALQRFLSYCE
Experiment: EMSA
Details: 150 mM KCl, 0.1 mM DTT, 0.1 mM EDTA, 10 mM Tris pH 7.4, 20 min at room temperature; 6% native PAGE, SYBR Green

Sequence: GTTGAACCGCTTTTCAGTACTTCAGCAAACACTTCAAGTTGTCGTAGCGTAATATGCATAGTCGTATCCCACCGATAGCGTTTCACTTACCACTTATAAAGATTAATTATAAATATATAATCAATTTTATTTTTAAACCAGATCACCGTAACCTTATTGTCCATATACAGGAGAAGGTTATGACAGAACTCACCTTGCAGAATCATCGTCGTACAATGTGGCATTTTATACCGGGGCTCGCTCTGAGCGCCGTCATTACAGGAGTCGCCCTGTGGGGCGGCGCTATCCCTGCCGTTGCA (double strand) [PyeiE]
- binding: binds
